Data: patent US20260224754A1, “ORAL FORMULATION TO ENSURE BIOAVAILABILITY OF PEPTIDE, PROTEIN, AND NUCLEIC ACID THERAPEUTICS” (THE TRUSTEES OF COLUMBIA UNIVERSITY IN THE CITY OF NEW YORK, priority 2023, published 2026)

Legend:
muscles of WT male mice = experiment: muscle gene expression in WT mice treated with recombinant LCN2; type: in vivo
Source text: (§1) Mean±SEM. *, P<0.05, Student's t test.
FIGS. 32A-32B show relative expression levels (fold over vehicle) of MyHCIIa and MyHCIIb in EDL of 12-week-old male Lcn2osb−/− or WT littermates (FIG. 32A) or 8-week-old WT male mice treated with the indicated doses of recombinant Lcn2 or vehicle (n=6/group) for 16 weeks (FIG. 32B). Mean±SEM. *, P<0.05, Student's t test.
FIGS. 34A-34B show relative expression levels (fold over vehicle) of the indicated genes in tibialis anterior of 12-week-old male Lcn2osb−/− or WT littermates (FIG. 34A) or 8-week-old WT male mice treated with 150 ng/g/day recombinant Lcn2 (n=7) or vehicle (n=8) for 16 weeks (FIG. 34B). Mean±SEM. *, P<0.05, Student's t test.
Regarding muscle function, LCN2 is required to maintain lean mass and endurance. […] Endurance measured as exercise distance of 6-month old LCN2−/− and WT littermates individually housed in cages equipped with voluntary running wheels and recorded for 14 days following a 7-day acclimation is shown in FIG. 28B. The increase in energy expenditure of overexpressed LCN2 can be explained in part from the increase in lean body mass, which is correlated to basal metabolic rate. […] Myogenic regulatory factors, namely myf5, mrf4, myoD and myoG. are transcription factors that regulate myogenesis. In the knockout mice, these myogenic factors either decreased or had little change though seems to trend to decrease.
Furthermore, the effect was studied in the specific type of type two muscle fiber. Type IIb is the classical fast twitch, white meat, glycolytic fiber type, whereas type IIa is still considered fast twitch but with oxidative capacity. It is considered in between an in between muscle fiber type between type 1, which are the slow twitch, red meat, oxidative muscle fiber, and classic type IIB. […] Both type II fibers are fast twitch, primarily glycolytic muscle fibers, but the type A ones are characterized by more mitochondria and seem to be more oxidative. […]

C2C12 cells = experiment: gene expression and PKA/cAMP in C2C12 cells treated with recombinant LCN2; type: cell-based, mouse
Method: as §1
FIG. 37 show relative expression levels (fold over vehicle) of AcylcoA, Mcad and Ucp2 in C2C12 cells treated with increasing concentrations of recombinant Lcn2 for 4 h. Mean±SEM. *, P<0.05, Student's t test.
The in vivo results were confirmed in vitro. […] FIG. 40 summarizes how LCN2 regulate lean body mass with an increase in myogenesis and energy expenditure.

B1: LCN2: bone-derived hormone, also known as oncogene 24p3 or neutrophil gelatinase-associated lipocalin (protein, UniProt P80188 21-198, looked up)
Neutrophil …: QDSTSDLIPAPPLSKVPLQQNFQDNQFQGKWYVVGLAGNAILREDKDPQKMYATIYELKEDKSYNVTSVLFRKKKCDYWIRTFVPGCQPGEFTLGNIKSYPGLTSYLVRVVSTNYNQHAMVFFKKVSQNREYFKITLYGRTKELTSELKENFIRFSKSLGLPENHIVFPVPIDQCIDG
In the case of B1, the “myosin heavy chain type IIa versus type IIb” value (muscles of WT male mice; EDL, WT male mice, 16 weeks) is reported as “increases the amount of myosin heavy chain type IIa compared to type IIb”, the “expression of myogenic regulatory factors (myf5, mrf4, myoD, myoG)” value (muscles of WT male mice; male WT mice treated with LCN2) is reported as “at least a twofold increase in all myogenic regulatory factors” and the “expression of mitochondrial genes” value (muscles of WT male mice; tibialis anterior, WT mice treated with LCN2) is reported as “increase in these mitochondrial genes”. For the same molecule, the “expression of genes associated with beta-oxidation” value (C2C12 cells; 4 h) was “increase in the expression of genes associated with B-oxidation”, the “expression of genes that promote mitochondrial biogenesis (NRF1, Pgc1a)” value (C2C12 cells; 4 h) was “increases the expression of genes that promote mitochondrial biogenesis” and the “expression of genes that promote myogenesis” value (C2C12 cells; 4 h) was “increases the expression of genes that promote myogenesis”. For the same molecule, the PKA/cAMP activity (C2C12 cells; Western blot and ELISA) was “induces PKA/cAMP activity”.
